Reference: US20250197502A1 (EXELIXIS, published 2025)

Assays:
[1] = molecular target: T1, Human CD47, soluble His-tagged extracellular domain (AcroBiosystems Cat# CD7-H82E9) (human, UniProt Q08722 19-139); assay: phage display selection and phage ELISA on biotinylated human CD47 extracellular domain
T1 construct: Bought reagent; also called biotinylated human CD47 His-Avitag; not shown: His tag / His-Avitag of the bought reagent

[2] = molecular target: T2, Human PD-L1, soluble His-tagged (AcroBiosystems Cat# PD1-H82E5) (human, UniProt Q9NZQ7 19-238); assay: phage display selection and phage ELISA on biotinylated human PD-L1 extracellular domain, then affinity maturation
T2 construct: The Carterra reagent PD1-H82E5 is only called a soluble, His-tagged antigen; The Biacore reagent is not specified; also called PD-L1/B7-H1; not shown: His tag of the bought reagent
T2 sequence (Q9NZQ7 19-238): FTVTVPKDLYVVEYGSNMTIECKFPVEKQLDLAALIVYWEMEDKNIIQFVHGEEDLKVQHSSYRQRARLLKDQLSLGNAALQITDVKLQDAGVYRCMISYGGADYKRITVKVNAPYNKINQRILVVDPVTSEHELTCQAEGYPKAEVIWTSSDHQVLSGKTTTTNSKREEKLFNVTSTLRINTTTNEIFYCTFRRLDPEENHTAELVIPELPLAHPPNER

[3] = molecular target: T3, Human CD47 on the cell surface (tumor cell lines; human red blood cells) (human, UniProt Q08722 19-323); assay: cell-based or functional assay
T3 sequence (Q08722 19-323 limits assumed): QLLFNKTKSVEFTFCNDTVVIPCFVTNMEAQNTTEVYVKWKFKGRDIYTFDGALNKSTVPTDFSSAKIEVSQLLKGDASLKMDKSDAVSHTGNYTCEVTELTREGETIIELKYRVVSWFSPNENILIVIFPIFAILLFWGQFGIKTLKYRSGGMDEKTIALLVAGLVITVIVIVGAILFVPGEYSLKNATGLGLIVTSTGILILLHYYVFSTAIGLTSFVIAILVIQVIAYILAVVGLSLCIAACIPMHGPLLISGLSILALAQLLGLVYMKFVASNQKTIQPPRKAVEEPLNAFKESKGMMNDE

[4] = molecular target: T4, Human PD-L1 on the cell surface (tumor cell lines) (human, UniProt Q9NZQ7 19-290); assay: cell-based or functional assay
T4 sequence (Q9NZQ7 19-290 limits assumed): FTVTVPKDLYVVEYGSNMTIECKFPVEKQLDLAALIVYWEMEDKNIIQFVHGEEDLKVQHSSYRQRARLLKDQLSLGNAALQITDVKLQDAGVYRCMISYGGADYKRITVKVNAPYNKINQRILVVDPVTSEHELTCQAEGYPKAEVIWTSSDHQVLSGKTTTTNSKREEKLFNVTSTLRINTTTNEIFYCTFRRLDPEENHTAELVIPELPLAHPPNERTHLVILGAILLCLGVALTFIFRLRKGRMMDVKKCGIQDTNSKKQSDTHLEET

[5] = molecular target: T3, Human CD47 on the cell surface (tumor …); assay: cell-based or functional assay; remark: listed apart in the source
[6] = molecular target: T4, Human PD-L1 on the cell surface (tumor …); assay: cell-based or functional assay; remark: listed apart in the source
[7] = molecular target: T5, CD47 and PD-L1 co-expressed on the surface of tumor cells (PDL1-MDA-MB-231, NCI-H292, HT-1080) (human, UniProt Q08722 19-323; Q9NZQ7 19-290); assay: cell-based or functional assay
T5 sequence (Q08722 19-323 limits assumed, chain 1 of 2): as the sequence (Q08722 19-323 limits assumed) above
T5 sequence (Q9NZQ7 19-290 limits assumed, chain 2 of 2): as the sequence (Q9NZQ7 19-290 limits assumed) above

[8] = molecular target: T1, Human CD47, soluble His-tagged …; assay: Biacore (SPR); format not described
[9] = molecular target: T6, Cynomolgus CD47, soluble His-tagged (AcroBiosystems Cat# CD7-C52H1) (cynomolgus, UniProt A0A2K5X523 19-139); assay: Biacore (SPR); format not described
T6 construct: Soluble antigen; also called Cyno CD47; cyno-CD47

[10] = molecular target: T2, Human PD-L1, soluble His-tagged …; assay: Biacore (SPR); format not described
[11] = molecular target: T7, Cynomolgus PD-L1, soluble His-tagged (AcroBiosystems Cat# PD1-C52H4) (cynomolgus, UniProt G7PSE7 19-239); assay: Biacore (SPR); format not described
T7 construct: Soluble antigen; also called Cyno PD-L1; cyno-PD-L1
T7 sequence (G7PSE7 entry or part of it): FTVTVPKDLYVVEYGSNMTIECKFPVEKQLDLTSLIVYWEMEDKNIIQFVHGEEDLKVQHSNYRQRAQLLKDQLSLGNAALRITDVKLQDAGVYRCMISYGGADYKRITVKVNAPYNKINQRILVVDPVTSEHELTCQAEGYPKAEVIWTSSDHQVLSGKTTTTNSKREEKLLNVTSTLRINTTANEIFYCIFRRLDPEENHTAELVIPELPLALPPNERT

[12] = molecular target: T5, CD47 and PD-L1 co-expressed on the …; assay: flow cytometry (MFI) on HT-1080 cells endogenously expressing CD47 and PD-L1
[13] = molecular target: T5, CD47 and PD-L1 co-expressed on the …; assay: flow cytometry (MFI) on NCI-H292 cells endogenously expressing CD47 and PD-L1
[14] = molecular target: T1, Human CD47, soluble His-tagged …; assay: Carterra biosensor kinetics; bsAb1 coupled to HC30M chip, soluble His-tagged antigen 1.2-900 nM, global fit
Experimental: (§1) To obtain accurate kinetic constants, the bispecific antibody was prepared at concentrations ranging from 1 to 10 μg/mL in 10 mM NaOAc (pH 4.25 or pH 4.5), and the coupling reaction was performed in running buffer (25 mM MES, pH 5.5) using multiple chip locations for each concentration. In the next association step, the binding interaction of antigen to the coupled antibody was measured. In general, each binding event consisted of a one minute baseline interval followed by a 5 minute antigen injection and a 15 minute dissociation with HBSTE buffer (10 mM HEPES, 150 mM NaCl, 3 mM EDTA, 0.01% Tween-20, pH 7.4) as running buffer. […] Antigens for binding studies were then prepared by reconstituting according to manufacturer recommendation. To obtain accurate kinetic constants, the reconstituted antigens were subsequently diluted into HBSTE buffer to final concentrations ranging from 1.2 nM to 900 nM. Injections of the antigens at each concentration were performed in series. In the next dissociation step, a regeneration process consisting of three times of injection for 25 seconds with 0.1 M glycine (pH 2.8), 1 M NaCl was performed between each antigen binding event, by which the bound antigen on the surface of the chip was allowed to dissociate. Carterra Kinetics analysis package was used to calculate rate constants (kₐ, kd) and corresponding equilibrium dissociation constants (Kd). Binding data were first recovered by double-referencing to subtract the closest reference cell and blank injection.

[15] = molecular target: T6, Cynomolgus CD47, soluble His-tagged …; assay: as above
Experimental: as §1

[16] = molecular target: T2, Human PD-L1, soluble His-tagged …; assay: as above
Experimental: as §1

[17] = molecular target: T7, Cynomolgus PD-L1, soluble His-tagged …; assay: as above
Experimental: as §1

[18] = molecular target: T5, CD47 and PD-L1 co-expressed on the …; assay: flow cytometry, MFI on NCI-H292 tumor cells mixed with human RBC (tumor cells labelled with CellTrace Violet)
[19] = molecular target: T5, CD47 and PD-L1 co-expressed on the …; assay: flow cytometry (MFI) on PDL1-MDA-MB-231 cells co-expressing CD47 and PD-L1; PDL1-MDA-MB-231 cells carrying both CD47 (~500,000) and PD-L1 (~1,500,000)

T1 sequence (Q08722 19-139): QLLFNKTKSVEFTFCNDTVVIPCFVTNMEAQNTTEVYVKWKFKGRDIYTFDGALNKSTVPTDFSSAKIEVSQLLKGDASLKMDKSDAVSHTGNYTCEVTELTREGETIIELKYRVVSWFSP

B1: Antibody mAb-C (selected CD47 binding antibody) (antibody, IgG1, V domains shown)
VH: EVQLVESGGGLVQPGGSLRLSCAASGFTFSWYYIHWVRQAPGKGLEWVAYIDSSSGYTEYADSVKGRFTISADTSKNTAYLQMNSLRAEDTAVYYCARGGYLGMDYWGQGTLVTVSS
VL: DIQMTQSPSSLSASVGDRVTITCRASQSVSSAVAWYQQKPGKAPKLLIYSASSLYSGVPSRFSGSRSGTDFTLTISSLQPEDFATYYCQQSRSRPRTFGQGTKVEIK
notes: Selected as a Fab on phage
B1: binds [1].

B2: Antibody mAb-P (selected and then affinity matured PD-L1 binding antibody) (antibody, human IgG1, V domains shown)
VH: EVQLVESGGGLVQPGGSLRLSCAASGFTFRSYYIHWVRQAPGKGLEWVATISSYGVFTYYADSVKGRFTISADTSKNTAYLQMNSLRAEDTAVYYCARGTTLTPVLDYWGQGTLVTVSS
VL: DIQMTQSPSSLSASVGDRVTITCRASQSVSSAVAWYQQKPGKAPKLLIYSASSLSSGVPSRFSGSRSGTDFTLTISSLQPEDFATYYCQQFGAEPITFGQGTKVEIK
B2: binds [2].

B3: bsAb1 (mAb-C x mAb-P in an exemplary format; bispecific anti-CD47 x anti-PD-L1 antibody of four polypeptide chains) (bispecific antibody)
chain 1: not shown
chain 2: EVQLVESGGGLVQPGGSLRLSCAASGFTFSWYYIHWVRQAPGKGLEWVAYIDSSSGYTEYADSVKGRFTISADTSKNTAYLQMNSLRAEDTAVYYCARGGYLGMDYWGQGTLVTVSSAQPREPQVYTLPPCRDWLTKNQVSLTCLVKGFYPSDIAVEWESNGQPENNYKTTPPVLDSDGSFFLYSKLTVDKSRWQQGNVFSCSVMHEALHNHYTQKSLSLSPGK
chain 3: not shown
chain 4: EVQLVESGGGLVQPGGSLRLSCAASGFTFRSYYIHWVRQAPGKGLEWVATISSYGVFTYYADSVKGRFTISADTSKNTAYLQMNSLRAEDTAVYYCARGTTLTPVLDYWGQGTLVTVSSASTKGPSVFPLAPSSKSTSGGTAALGCLVKDYFPEPVTVSWNSGALTSGVHTFPAVLQSSGLYSLSSVVTVPSSSLGTQTYICNVNHKPSNTKVDKKVEPKSC
notes: Chains 1+2 form the CD47 arm (mAb-C), chains 3+4 the PD-L1 arm (mAb-P); also called the selected bispecific antibody
B3 was tested, and the “EC50 of inhibiting CD47/SIRPα signaling in PDL1-MDA-MB-231 cells (PathHunter chemiluminescent signal)” value [3] was 0.076 nM, the “EC50 of inhibiting PD-1/PD-L1 interaction in PDL1-MDA-MB-231 cells (PathHunter chemiluminescent signal)” value [4] was 0.22 nM and the “IC50, CD47/SIRPa block (PathHunter CD47/SIRPα signaling bioassay)” value [5] was 0.8 nM. For the same binder, the “IC50, PD-L1/PD-1 block (PathHunter PD-1/PD-L1 signaling bioassay)” value [6] was 0.5 nM, the “ADCP (phagocytosis of NCI-H292 cells) EC50” value [7] was 0.2 nM and the Kd [8] was 21 nM. For the same binder, the koff [8] was 0.0141 s⁻¹, the Kd [9] was 25 nM and the koff [9] was 0.0137 s⁻¹. It also gave a Kd [10] of 0.05 nM, a koff [10] of 0.000164 s⁻¹ and a Kd [11] of 0.034 nM. For the same binder, the koff [11] was 0.00012 s⁻¹, the EC50 [12] was 0.2 nM and the EC50 [13] was 0.7 nM. It also gave a Kd [14] of 27 nM, a koff [14] of 0.0093 s⁻¹ and a kon [14] of 350000 M⁻¹ s⁻¹. The Kd [15] was 24 nM, the koff [15] was 0.0046 s⁻¹ and the kon [15] was 190000 M⁻¹ s⁻¹. For the same binder, the Kd [16] was 0.15 nM, the koff [16] was 0.00013 s⁻¹ and the kon [16] was 980000 M⁻¹ s⁻¹. It also gave a Kd [17] of 0.18 nM, a koff [17] of 0.00015 s⁻¹ and a kon [17] of 890000 M⁻¹ s⁻¹. The “EC50 (read off the curve)” value [18] was roughly 0.7 nM and the EC50 [19] was 0.22 nM.
